According to patent publication US20250049972A1, “METHOD OF DETECTING PROSTATE CANCER IN A HUMAN SUBJECT USING A Cu 64 PSMA I&T INJECTION” (Curium US LLC, priority 2023, published 2025):

How the values were obtained:
[1] = Phase 1 independent reader assessment of image quality (lesion evaluation and general) of 5, 7, 9 mCi scans; format: in vivo, human; details: for Lesion evaluation Image Quality Score (Mean [SD]) / Number of Lesions visible: 4-hour scans
Protocol: The Phase 1 portion of the study included a total of 12 patients with biochemical, recurrent PC after prostatectomy or radiation therapy. Patients were randomized into 3 groups of 4 patients. Patients in a given group received a single intravenous dose of 5, 7, or 9 mCi (±10%) of copper Cu-64 PSMA I&T. Whole-body PET/CT images were acquired at 1 hour (±15 minutes), 4 hours (±30 minutes), and 24 hours (±2.0 hours) post injection.
The 1-hour and 4-hour PET/CT images were evaluated independently by 3 readers blinded to all patient information, dose administration, and times of acquisition to assess the quality of the images (24 PET/CT image sets total). In addition, readers performed all assessments in one sitting with images scrambled such that the 1- and 4-hour imaging from the same patient was […]. The imaging protocol, scanner qualification, and imaging time/bed position were identical at 1, 4 and 24 hours and kept constant regardless of dose. The assessments were used together with dose reduction modeling to determine an acceptable dose to be administered for the Phase 2 portion of the study defined as the lowest copper Cu-64 PSMA I&T dose that yielded the most clinically relevant diagnostic image quality based on expert consensus review of all measurements and overall image quality.

clinical = details: human, in vivo, total radioactivity
Protocol: Radiation dosimetry estimates for normal organs were determined for copper Cu-64 PSMA I&T based on biodistribution collected from the 12 patients enrolled in the trial. Whole-body PET/CT images acquired at 1 hour (±15 minutes), 4 hours (±30 minutes), and 24 hours (±2.0 hours) post injection were used together with blood samples collected prior to and 1, 2, 4, and 24 hours post injection and total voided urine samples collected for 0 to 1-hour and 1 to 4-hour intervals post injection.
Percent injected activity as a function of time was determined for the quantified organs listed below.
First, calculating Activity Quantification in PET Images utilizing the following Equation One: […]
Use of this equation can calculate organ/tissue and whole body activity concentration levels.
Second, Normalization of PET Quantification utilizing a normalization factor to decay values using urine activity utilizing the following Equation Two:
A normalization factor can be determined and applied to the decay corrected % IA values by assuming 100% quantification of the total body activity at the first time point and assuming accurate urine activity assay according to Equation Two.

[2] = Mean % Injected Dose, GI Total Contents
[3] = Mean % Injected Dose, Heart wall
[4] = Mean % Injected Dose, Lacrimal Glands
[5] = Mean % Injected Dose, Pituitary
[6] = Mean % Injected Dose, Red Marrow
[7] = Mean % Injected Dose, Salivary glands
[8] = Mean % Injected Dose, Stomach Wall
[9] = Mean % Injected Dose, Whole Body

With `O=C(O)CC[C@H](NC(=O)N[C@@H](CCCCNC(=O)CCCCCCC(=O)NCCCC[C@@H](NC(=O)[C@@H](Cc1ccccc1)NC(=O)[C@@H](Cc1ccc(O)c(I)c1)NC(=O)CC[C@H](C(=O)O)N1CCN(CC(=O)O)CCN(CC(=O)O)CCN(CC(=O)O)CC1)C(=O)O)C(=O)O)C(=O)O` [Cu-64 PSMA I&T, 64 Cu-(3S, 7S, 26R, 29R, 32R, 37R)-29-benzyl-32(4-hydroxy-3-iodobenzyl)-5, 13, 20, 28, 31, 34-hexaoxo-37-(4,7,10-tris(carboxymethyl)-1,4,7, 10-tetraazacyclododecan-1-yl)-4,6, 12, 21, 27, 30, 33-heptaazaheptatriacontane-1,3,7, 26, 37-pentacarboxylic acid, metal not drawn] the “Average general image quality across timepoints” value ([1]; 5 mCi (n = 4)) was 1.63 (0.58), the “Average general image quality across timepoints” value ([1]; 7 mCi (n = 4)) was 1.58 (0.58) and the “Average general image quality across timepoints” value ([1]; 9 mCi) was 1.71 (0.46). The “Lesion evaluation Image Quality Score (Mean [SD])” value ([1]; Reader 1, 5 mCi) was 2.00 (0.00), the “Number of Lesions visible” value ([1]; Reader 1, 5 mCi) was 19 and the “Lesion evaluation Image Quality Score (Mean [SD])” value ([1]; Reader 1, 7 mCi) was 2.00 (0.00). The “Number of Lesions visible” value ([1]; Reader 1, 7 mCi) was 15, the “Lesion evaluation Image Quality Score (Mean [SD])” value ([1]; Reader 1, 9 mCi) was 2.00 (0.00) and the “Number of Lesions visible” value ([1]; Reader 1, 9 mCi) was 12. The “General Image Quality score (Mean [SD])” value ([1]; Reader 1, 1 hour, 5 mCi (n = 4)) was 2.00 (0.00), the “General Image Quality score (Mean [SD])” value ([1]; Reader 1, 1 hour, 7 mCi (n = 4)) was 2.00 (0.00) and the “General Image Quality score (Mean [SD])” value ([1]; Reader 1, 1 hour, 9 mCi) was 1.75 (0.50). The “General Image Quality score (Mean [SD])” value ([1]; Reader 1, 4 hours, 5 mCi (n = 4)) was 1.75 (0.50), the “General Image Quality score (Mean [SD])” value ([1]; Reader 1, 4 hours, 7 mCi (n = 4)) was 2.00 (0.00) and the “General Image Quality score (Mean [SD])” value ([1]; Reader 1, 4 hours, 9 mCi) was 1.75 (0.50). The “Lesion evaluation Image Quality Score (Mean [SD])” value ([1]; Reader 2, 5 mCi) was 2.00 (0.00), the “Number of Lesions visible” value ([1]; Reader 2, 5 mCi) was 17 and the “Lesion evaluation Image Quality Score (Mean [SD])” value ([1]; Reader 2, 7 mCi) was 1.77 (0.44). The “Number of Lesions visible” value ([1]; Reader 2, 7 mCi) was 13, the “Lesion evaluation Image Quality Score (Mean [SD])” value ([1]; Reader 2, 9 mCi) was 2.00 (0.00) and the “Number of Lesions visible” value ([1]; Reader 2, 9 mCi) was 13. For the same compound, the “General Image Quality score (Mean [SD])” value ([1]; Reader 2, 1 hour, 5 mCi (n = 4)) was 2.00 (0.00), the “General Image Quality score (Mean [SD])” value ([1]; Reader 2, 1 hour, 7 mCi (n = 4)) was 1.00 (0.82) and the “General Image Quality score (Mean [SD])” value ([1]; Reader 2, 1 hour, 9 mCi) was 1.75 (0.50). For the same compound, the “General Image Quality score (Mean [SD])” value ([1]; Reader 2, 4 hours, 5 mCi (n = 4)) was 2.00 (0.00), the “General Image Quality score (Mean [SD])” value ([1]; Reader 2, 4 hours, 7 mCi (n = 4)) was 1.50 (0.58) and the “General Image Quality score (Mean [SD])” value ([1]; Reader 2, 4 hours, 9 mCi) was 2.00 (0.00). The “Number of Lesions visible” value ([1]; Reader 3, 5 mCi) was 19, the “Number of Lesions visible” value ([1]; Reader 3, 7 mCi) was 12 and the “Lesion evaluation Image Quality Score (Mean [SD])” value ([1]; Reader 3, 9 mCi) was 1.85 (0.38). For the same compound, the “Number of Lesions visible” value ([1]; Reader 3, 9 mCi) was 13, the “General Image Quality score (Mean [SD])” value ([1]; Reader 3, 1 hour, 5 mCi (n = 4)) was 1.00 (0.00) and the “General Image Quality score (Mean [SD])” value ([1]; Reader 3, 1 hour, 7 mCi (n = 4)) was 1.25 (0.50). The “General Image Quality score (Mean [SD])” value ([1]; Reader 3, 1 hour, 9 mCi) was 1.50 (0.58), the “General Image Quality score (Mean [SD])” value ([1]; Reader 3, 4 hours, 5 mCi (n = 4)) was 1.00 (0.82) and the “General Image Quality score (Mean [SD])” value ([1]; Reader 3, 4 hours, 7 mCi (n = 4)) was 1.75 (0.50). For the same compound, the “General Image Quality score (Mean [SD])” value ([1]; Reader 3, 4 hours, 9 mCi) was 1.50 (0.58), the “QIQS (general image quality), lowest score” value ([1]; at 4 hours, 5, 7 and 9 mCi, all readers) was at least 1.00 and the tissue uptake dose at 1 h (clinical; Mean % Injected Dose, Blood) was 5.8 %ID. For the same compound, the tissue uptake dose at 2 h (clinical; Mean % Injected Dose, Blood) was 4.2 %ID, the tissue uptake dose at 4 h (clinical; Mean % Injected Dose, Blood) was 3.2 %ID and the tissue uptake dose at 24 h (clinical; Mean % Injected Dose, Blood) was 4.4 %ID. The tissue uptake dose at 1 h (clinical; [2]) was 10 %ID, the tissue uptake dose at 4 h (clinical; [2]) was 10 %ID and the tissue uptake dose at 24 h (clinical; [2]) was 12 %ID. It also gave a tissue uptake dose at 1 h (clinical; [3]) of 1.2 %ID, a tissue uptake dose at 4 h (clinical; [3]) of 0.84 %ID and a tissue uptake dose at 24 h (clinical; [3]) of 0.96 %ID. For the same compound, the tissue uptake dose at 1 h (clinical; Mean % Injected Dose, Kidneys) was 8.6 %ID, the tissue uptake dose at 4 h (clinical; Mean % Injected Dose, Kidneys) was 5 %ID and the tissue uptake dose at 24 h (clinical; Mean % Injected Dose, Kidneys) was 2.1 %ID. For the same compound, the tissue uptake dose at 1 h (clinical; [4]) was 0.023 %ID, the tissue uptake dose at 4 h (clinical; [4]) was 0.024 %ID and the tissue uptake dose at 24 h (clinical; [4]) was 0.015 %ID. It also gave a tissue uptake dose at 1 h (clinical; Mean % Injected Dose, Liver) of 19 %ID, a tissue uptake dose at 4 h (clinical; Mean % Injected Dose, Liver) of 25 %ID and a tissue uptake dose at 24 h (clinical; Mean % Injected Dose, Liver) of 30 %ID. It also gave a tissue uptake dose at 1 h (clinical; Mean % Injected Dose, Pancreas) of 0.35 %ID, a tissue uptake dose at 4 h (clinical; Mean % Injected Dose, Pancreas) of 0.39 %ID and a tissue uptake dose at 24 h (clinical; Mean % Injected Dose, Pancreas) of 0.28 %ID. The tissue uptake dose at 1 h (clinical; [5]) was 0.0021 %ID, the tissue uptake dose at 4 h (clinical; [5]) was 0.0019 %ID and the tissue uptake dose at 24 h (clinical; [5]) was 0.0017 %ID. It also gave a tissue uptake dose at 1 h (clinical; Mean % Injected Dose, Prostate) of 0.036 %ID, a tissue uptake dose at 4 h (clinical; Mean % Injected Dose, Prostate) of 0.031 %ID and a tissue uptake dose at 24 h (clinical; Mean % Injected Dose, Prostate) of 0.021 %ID. For the same compound, the tissue uptake dose at 1 h (clinical; [6]) was 1.7 %ID, the tissue uptake dose at 4 h (clinical; [6]) was 1.4 %ID and the tissue uptake dose at 24 h (clinical; [6]) was 1.5 %ID. For the same compound, the tissue uptake dose at 24 h (clinical; Mean % Injected Dose, Remainder) was 52 %ID, the tissue uptake dose at 1 h (clinical; [7]) was 1.1 %ID and the tissue uptake dose at 4 h (clinical; [7]) was 0.95 %ID. For the same compound, the tissue uptake dose at 24 h (clinical; [7]) was 0.4 %ID, the tissue uptake dose at 1 h (clinical; Mean % Injected Dose, Spleen) was 1.5 %ID and the tissue uptake dose at 4 h (clinical; Mean % Injected Dose, Spleen) was 0.54 %ID. It also gave a tissue uptake dose at 24 h (clinical; Mean % Injected Dose, Spleen) of 0.29 %ID, a tissue uptake dose at 1 h (clinical; [8]) of 0.52 %ID and a tissue uptake dose at 4 h (clinical; [8]) of 0.51 %ID. For the same compound, the tissue uptake dose at 24 h (clinical; [8]) was 0.42 %ID, the tissue uptake dose at 1 h (clinical; Mean % Injected Dose, Testes) was 0.11 %ID and the tissue uptake dose at 4 h (clinical; Mean % Injected Dose, Testes) was 0.1 %ID. For the same compound, the tissue uptake dose at 24 h (clinical; Mean % Injected Dose, Testes) was 0.065 %ID, the tissue uptake dose at 1 h (clinical; Mean % Injected Dose, Thyroid) was 0.031 %ID and the tissue uptake dose at 4 h (clinical; Mean % Injected Dose, Thyroid) was 0.019 %ID. The tissue uptake dose at 24 h (clinical; Mean % Injected Dose, Thyroid) was 0.016 %ID, the tissue uptake dose at 1 h (clinical; [9]) was 96 %ID and the tissue uptake dose at 4 h (clinical; [9]) was 87 %ID. For the same compound, the tissue uptake dose at 24 h (clinical; [9]) was 81 %ID and the total activity recovery (whole-body PET plus urine), % of injected activity at 1 hour (clinical; sum of unnormalized activity recovery from whole body PET quantification and urinary excretion, % of the injected activity) was 101%.
